Like-named read-outs stand apart in the source and are kept apart here. One block for each molecule: values may come before it.
How the values were obtained:
[1] = molecular target: TROP-2 ectodomain expressed in HEK-293T cells (TROP-2-ECD-293T) (human) (UniProt P09758); test: crystal structure
[2] = molecular target: TROP-2 ectodomain expressed in HEK-293T cells (TROP-2-ECD-293T) (human) (UniProt P09758); test: crystal structure; remark: listed apart in the source
[3] = molecular target: TROP-2 ectodomain expressed in insect cells (TROP-2-ECD-insect) (human) (UniProt P09758); test: crystal structure
[4] = molecular target: TROP-2 ectodomain expressed in insect cells (TROP-2-ECD-insect) (human) (UniProt P09758); test: crystal structure; remark: listed apart in the source
[5] = molecular target: TROP-2 ectodomain expressed in insect cells (TROP-2-ECD-insect) (human) (UniProt P09758); test: ITC
[6] = BS3 cross-linking, SDS-PAGE; settings: glycan changed form; control: TROP-2-ECD from HEK-293T cells

- stoichiometry N [1]: 2
- stoichiometry N [2]: 4
Molecule: TROP-2 ectodomain expressed in HEK-293T cells (TROP-2-ECD-293T) (from UniProt P09758 27-274) (domain or fragment)

- stoichiometry N [3]: 2
- stoichiometry N [4]: 4
- Kd [5]: 402 µM
- dH [5]: 38.3 kJ/mol
Molecule: TROP-2 ectodomain expressed in insect cells (TROP-2-ECD-insect) (from UniProt P09758 27-274) (domain or fragment)

B1: TROP-2 (trophoblast cell surface antigen 2) ectodomain, TROP-2-ECD: expression in insect cells (protein)
parent chain: MARGPGLAPPPLRLPLLLLVLAAVTGHTAAQDNCTCPTNKMTVCSPDGPGGRCQCRALGSGMAVDCSTLTSKCLLLKARMSAPKNARTLVRPSEHALVDNDGLYDPDCDPEGRFKARQCNQTSVCWCVNSVGVRRTDKGDLSLRCDELVRTHHILIDLRHRPTAGAFNHSDLDAELRRLFRERYRLHPKFVAAVHYEQPTIQIELRQNTSQKAAGDVDIGDAAYYFERDIKGESLFQGRGGLDLRVRGEPLQVERTLIYYLDEIPPKFSMKRLTAGLIAVIVVVVVALVAGMAVLVITNRRKSGKYKKVEIKELGELRKEPSL
- oligomerisation [6]: no change

Source: article PMC8517388
